Measurements as given in paper PMC11169542, “A probe for NIR-II imaging and multimodal analysis of early Alzheimer’s disease by targeting CTGF” (Nature Communications, 2024).
Ends that are not written are not given here.

Key:
[1] = biological target: T1, CTGF (Mus musculus, UniProt P29268); test: DGC fluorescence labelling of AD mouse brain sections in vitro; design: species or system APP/PS1 and wild-type C57BL/6J mice; conditions: 200 μM DGC 4 °C overnight
T1 construct: brain sections of the age-matched wild-type C57BL/6J mice were used as controls; from tissue; host or cells: brain of APP/PS1 transgenic and wild-type C57BL/6J mice (sections, living animal, perfused isolated brain)
T1 sequence (P29268 26-348): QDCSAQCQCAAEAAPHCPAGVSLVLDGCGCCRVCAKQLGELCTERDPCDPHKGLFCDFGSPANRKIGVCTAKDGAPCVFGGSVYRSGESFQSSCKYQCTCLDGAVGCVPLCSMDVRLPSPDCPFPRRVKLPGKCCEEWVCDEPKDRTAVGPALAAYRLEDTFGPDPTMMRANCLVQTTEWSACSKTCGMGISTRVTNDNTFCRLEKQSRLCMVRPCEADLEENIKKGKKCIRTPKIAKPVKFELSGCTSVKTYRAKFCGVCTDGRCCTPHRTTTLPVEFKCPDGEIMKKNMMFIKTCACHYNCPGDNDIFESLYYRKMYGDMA
Description: To evaluate the expression of CTGF in the brain of AD mice and the efficacy of DGC in vitro, brain sections of APP/PS1 transgenic mice (derived from C57BL/6J) from 1-month to 9-month-old (1-, 2-, 3-, 6- and 9-month-old, female, n = 3) were used as AD model, and brain sections of the age-matched wild-type C57BL/6J mice were used as controls (female, n = 3). The brain sections were subjected to CTGF antibody immunofluorescence staining and DGC fluorescence imaging. The brains were collected and fixed with 4% PFA. The embedded brain was then sectioned using a microtome into 5-μm thick consecutive sections. The brain sections were immersed in Tris-EDTA buffer (pH = 9.0) at 95 °C for 15 min. The brain sections were then incubated with 3% bovine serum albumin for 1.5 h. Then, the brain sections were stained overnight at 4 °C with an anti-CTGF primary antibody (dilution 1:50, Abcam, Cat#ab6992). After restoring room temperature, they were washed with TBST (pH = 7.4, 3 × 5 min) and incubated with FITC-labeled Goat Anti-Rabbit IgG (h +L) (1: dilution 1:200, Bioss, Cat#bs-0370R-FITC) for 1 h. The brain sections were washed with TBST (pH = 7.4, 3 × 5 min). Finally, overnight staining with DGC (200 μM) at 4 °C and fluorescence imaging were obtained by the CLSM system.
Brain sections from female APP/PS1 double transgenic mice were used as AD models, and brain sections of the age-matched female wild-type C57BL/6J mice were used as controls to evaluate the availability of DGC in vitro. Three-month-old APP/PS1 mice (early-stage, unestablished Aβ plaques) and 9-month-old APP/PS1 mice (late-stage, established Aβ plaques) were chosen for comparison. All mice were purchased from Beijing HFK Bioscience Co., Ltd and handled in accordance with the Ethics Committee of Beijing University of Technology, China. To avoid the interference of strong background fluorescence signals of blood in cerebral microvessels, the blood vessels were emptied by cardiac perfusion with saline and PFA before dissociating the brain. After the completion of perfusion, the brain was collected and fixed with PFA for a longer time ex vivo. The embedded brain was then sectioned using a microtome into 5-μm thick continuous sections. The brain sections were labeled with DGC or CTGF, GFAP, and Aβ antibodies. Deparaffinization was performed first and antigen retrieval was implemented with immersion of the brain sections into Tris-EDTA buffer (pH = 9.0) at 95 °C for 15 min. Then, the brain sections were incubated with 3% bovine serum albumin for 1.5 h.
For fluorescence imaging of CTGF, the brain sections were stained with anti-CTGF primary antibody (dilution 1:50, Abcam, Cat#ab6992), anti-glial fibrillary acidic protein (GFAP) primary antibody (diluted 1:400, Proteintech, Cat#16825-1-AP) or anti-Aβ 17-24 (4G8, diluted 1:1000, BioLegend, Cat#SIG-39200) at 4 °C for 4 h. After they were washed by TBST (pH = 7.4, 3 × 5 min) at room temperature, the brain sections were incubated with the secondary antibody (FITC-labeled Goat Anti-Rabbit IgG (H + L) (1: dilution 1:200, Bioss, Cat#bs-0370R-FITC) for 1 h. After the brain sections were washed by TBST (pH = 7.4, 3 × 5 min). Finally, the brain sections were co-stained by DGC (200 μM) at 4 °C overnight, and the staining results were acquired on the CLSM system.

[2] = biological target: T1, CTGF; test: Ex vivo NIR-II imaging of perfused brains after DGC injection; assay type: in vivo, APP/PS1 mice; conditions: 20 mg/kg i.v., saline perfusion, relative to 1 month
Procedure: Mice were then perfused intracardially with saline and 4% PFA, and major organs (including the brain, heart, liver, spleen, lung, and kidney were isolated. The dissociated brains were performed NIR-II imaging ex vivo using the same method as in vivo imaging (n = 3). All isolated organs were also imaged by the NIR-II imaging system (λ ex = 808 nm, 1000 nm longpass (LP) filter (Edmund Optics)). And then, the brains were kept in 4% PFA overnight and embedded with paraffin. Sections with 5-μm thickness were cut and analyzed by immunostaining with antibodies to CTGF (dilution 1: 50, Abcam, Cat#ab6992), GFAP (dilution 1:100, Proteintech, Cat#16825-1-AP), CD31 (dilution 1:200, Beyotime, Cat#AF6408), Neun (dilution 1:300, abcam, Cat# ab177487), and Iba 1 (dilution 1:50, Beyotime, Cat# AF7143), respectively.

[3] = Dynamic light scattering, hydrated particle size; assay type: physicochemical; conditions: dynamic light scattering (Zetasizer Nano), aqueous
Description: The fluorescence spectrophotometer (Shimadzu RF-5301, Kyoto, Japan) and NIR spectrograph FLS1000 was used to acquire the fluorescence and NIR spectra of the as-synthesized DGC. The mean hydrated particle size and size distribution of DGC were further documented by a phase analysis light-scattering technique (Zetasizer Nano, Malvern). The synthetic DGC was also observed by using a High-Resolution Transmission Electron Microscope (HRTEM, FEI Talos F200X-G2) at the accelerated voltage of 200 kV.

FL intensity of DGC on brain section ([1]; 3-month-old APP/PS1 mouse brain section, section 1): 0.02124 | FL intensity of DGC on brain section ([1]; 3-month-old APP/PS1 mouse brain section, section 2): 0.02275 | FL intensity of DGC on brain section ([1]; 3-month-old APP/PS1 mouse brain section, section 3): 0.01511 | FL intensity of DGC on brain section ([1]; 9-month-old APP/PS1 mouse brain section, section 1): 0.0369 | FL intensity of DGC on brain section ([1]; 9-month-old APP/PS1 mouse brain section, section 2): 0.0329 | FL intensity of DGC on brain section ([1]; 9-month-old APP/PS1 mouse brain section, section 3): 0.0406 | FL intensity of DGC on brain section ([1]; WT mouse brain section, section 1): 0.00435 | FL intensity of DGC on brain section ([1]; WT mouse brain section, section 2): 0.0071 | FL intensity of DGC on brain section ([1]; WT mouse brain section, section 3): 0.0055 | ex vivo NIR-II fluorescence (FL) intensity in brain ([2]; 1-month-old APP/PS1 mice, brain 1): 1 | ex vivo NIR-II fluorescence (FL) intensity in brain ([2]; 1-month-old APP/PS1 mice, brain 2): 1 | ex vivo NIR-II fluorescence (FL) intensity in brain ([2]; 1-month-old APP/PS1 mice, brain 3): 1 | ex vivo NIR-II fluorescence (FL) intensity in brain ([2]; 2-month-old APP/PS1 mice, brain 1): 1.473 | ex vivo NIR-II fluorescence (FL) intensity in brain ([2]; 2-month-old APP/PS1 mice, brain 2): 1.458 | ex vivo NIR-II fluorescence (FL) intensity in brain ([2]; 2-month-old APP/PS1 mice, brain 3): 1.501 | ex vivo NIR-II fluorescence (FL) intensity in brain ([2]; 3-month-old APP/PS1 mice, brain 1): 1.722 | ex vivo NIR-II fluorescence (FL) intensity in brain ([2]; 3-month-old APP/PS1 mice, brain 2): 1.714 | ex vivo NIR-II fluorescence (FL) intensity in brain ([2]; 3-month-old APP/PS1 mice, brain 3): 1.766 | ex vivo NIR-II fluorescence (FL) intensity in brain ([2]; 6-month-old APP/PS1 mice, brain 1): 2.766 | ex vivo NIR-II fluorescence (FL) intensity in brain ([2]; 6-month-old APP/PS1 mice, brain 2): 2.744 | ex vivo NIR-II fluorescence (FL) intensity in brain ([2]; 6-month-old APP/PS1 mice, brain 3): 2.849 | ex vivo NIR-II fluorescence (FL) intensity in brain ([2]; 9-month-old APP/PS1 mice, brain 1): 3.728 | ex vivo NIR-II fluorescence (FL) intensity in brain ([2]; 9-month-old APP/PS1 mice, brain 2): 3.62 | ex vivo NIR-II fluorescence (FL) intensity in brain ([2]; 9-month-old APP/PS1 mice, brain 3): 3.948
Substance: DGC: CTGF-targeting peptide-coated gold nanocluster: one Au26 gold nanocluster coated by eight DAG cyclic peptides, NIR-II and red fluorescence (CDAGRKQKC; also: cyclic peptide, ring not given here, eight peptides on one Au26 nanocluster via Cys Au-S bonds)
average hydrated size [3]: ~ 2.85 nm
